Assay results from paper PMC2064653 (The Journal of Cell Biology, 2007).

Tests used:
[1] = biological target: Myo4p-GFP (S. cerevisiae) (UniProt P32492); test: single-molecule fluorescence intensity and photobleaching
[2] = biological target: Myo4/2p (Myo4 motor - Myo2 IQ + C-tail) (S. cerevisiae) (UniProt P32492); test: cross-linking
cross-linking = biological target: the molecule itself; test: cross-linking
[3] = biological target: the molecule itself; test: single-molecule fluorescence intensity and photobleaching

Myo4p-GFP (from UniProt P32492 1-1471) (natural protein)
stoichiometry N [1]: > 3

Myo4/2p (Myo4 motor - Myo2 IQ + C-tail) (from UniProt P32492 1-778; P19524 783-1574)
stoichiometry N [2]: 2

B1: Myo2p (TEV-eluted and actin affinity purified from Myo2p-1/2TAP) (natural protein, S. cerevisiae, UniProt P19524 1-1574, looked up)
chain: MSFEVGTRCWYPHKELGWIGAEVIKNEFNDGKYHLELQLEDDEIVSVDTKDLNNDKDQSLPLLRNPPILEATEDLTSLSYLNEPAVLHAIKQRYSQLNIYTYSGIVLIATNPFDRVDQLYTQDMIQAYAGKRRGELEPHLFAIAEEAYRLMKNDKQNQTIVVSGESGAGKTVSAKYIMRYFASVEEENSATVQHQVEMSETEQKILATNPIMEAFGNAKTTRNDNSSRFGKYLEILFDKDTSIIGARIRTYLLERSRLVYQPPIERNYHIFYQLMAGLPAQTKEELHLTDASDYFYMNQGGDTKINGIDDAKEYKITVDALTLVGITKETQHQIFKILAALLHIGNIEIKKTRNDASLSADEPNLKLACELLGIDAYNFAKWVTKKQIITRSEKIVSNLNYSQALVAKDSVAKFIYSALFDWLVENINTVLCNPAVNDQISSFIGVLDIYGFEHFEKNSFEQFCINYANEKLQQEFNQHVFKLEQEEYVKEEIEWSFIEFNDNQPCIDLIENKLGILSLLDEESRLPAGSDESWTQKLYQTLDKSPTNKVFSKPRFGQTKFIVSHYALDVAYDVEGFIEKNRDTVSDGHLEVLKASTNETLINILEGLEKAAKKLEEAKKLELEQAGSKKPGPIRTVNRKPTLGSMFKQSLIELMNTINSTNVHYIRCIKPNADKEAWQFDNLMVLSQLRACGVLETIRISCAGFPSRWTFEEFVLRYYILIPHEQWDLIFKKKETTEEDIISVVKMILDATVKDKSKYQIGNTKIFFKAGMLAYLEKLRSNKMHNSIVMIQKKIRAKYYRKQYLQISQAIKYLQNNIKGFIIRQRVNDEMKVNCATLLQAAYRGHSIRANVFSVLRTITNLQKKIRKELKQRQLKQEHEYNAAVTIQSKVRTFEPRSRFLRTKKDTVVVQSLIRRRAAQRKLKQLKADAKSVNHLKEVSYKLENKVIELTQNLASKVKENKEMTERIKELQVQVEESAKLQETLENMKKEHLIDIDNQKSKDMELQKTIENNLQSTEQTLKDAQLELEDMVKQHDELKEESKKQLEELEQTKKTLVEYQTLNGDLQNEVKSLKEEIARLQTAMSLGTVTTSVLPQTPLKDVMGGGASNFNNMMLENSDLSPNDLNLKSRSTPSSGNNHIDSLSVDRENGVNATQINEELYRLLEDTEILNQEITEGLLKGFEVPDAGVAIQLSKRDVVYPARILIIVLSEMWRFGLTKQSESFLAQVLTTIQKVVTQLKGNDLIPSGVFWLANVRELYSFVVFALNSILTEETFKNGMTDEEYKEYVSLVTELKDDFEALSYNIYNIWLKKLQKQLQKKAINAVVISESLPGFSAGETSGFLNKIFANTEEYTMDDILTFFNSIYWCMKSFHIENEVFHAVVTTLLNYVDAICFNELIMKRNFLSWKRGLQLNYNVTRLEEWCKTHGLTDGTECLQHLIQTAKLLQVRKYTIEDIDILRGICYSLTPAQLQKLISQYQVADYESPIPQEILRYVADIVKKEAALSSSGNDSKGHEHSSSIFITPETGPFTDPFSLIKTRKFDQVEAYIPAWLSLPSTKRIVDLVAQQVVQDGH
stoichiometry N (cross-linking): 2

B2: Myo2p-GFP (natural protein, S. cerevisiae, UniProt P19524 1-1574, looked up)
chain: B1 chain
stoichiometry N [3]: 2
